Measurements taken from patent US7135457 (CYTOGEN, dated 2006).
Like-named read-outs stand apart in the source and are kept apart here.

Tests used:
[1] = biological target: T1, human D2H transporter receptor domain, amino acid residues 387-685, His-tag fusion protein (human, UniProt Q07837 387-685); experiment: phage ELISA, OD on D2H over OD on BSA
T1 construct: Expressed as His-tag fusion, purified under denaturing conditions, coated on plates; not shown: poly-histidine tag (pET His-tag) at the NH2-terminal end
T1 sequence: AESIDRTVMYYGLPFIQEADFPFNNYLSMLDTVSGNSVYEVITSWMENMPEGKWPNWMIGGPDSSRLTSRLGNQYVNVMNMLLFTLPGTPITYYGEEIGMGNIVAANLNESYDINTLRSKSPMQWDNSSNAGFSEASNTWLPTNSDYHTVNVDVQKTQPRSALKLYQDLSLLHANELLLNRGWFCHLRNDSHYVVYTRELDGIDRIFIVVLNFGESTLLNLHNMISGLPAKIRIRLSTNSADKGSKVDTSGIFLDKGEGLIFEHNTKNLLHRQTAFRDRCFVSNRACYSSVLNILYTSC
Description: (§1) 6.6. Receptor ELISA Procedure 96 well plates were coated overnight with GIT receptor, BSA and, optionally, IDE (insulin degrading enzyme, an irrelevant His-fusion protein) or hTF. The plates were blocked for one hour with 0.5% BSA-PBS. After clarification, the amplified phage were diluted 1:100 in 1% BSA plus 0.05% Tween 20 in PBS and added to the plates. Following incubation of the plates on a rotator for 1 to 2 hours, the plates were washed 5 times with 1% BSA plus 0.05% Tween 20 in PBS. […] After the plates were washed 5 times, as described above, TMB substrate was added to the wells. The plates were read at 650 nm absorbance.

[2] = biological target: T1, human D2H transporter receptor domain, …; experiment: phage ELISA, coated D2H domain
Description: as §1

[3] = biological target: T1, human D2H transporter receptor domain, …; experiment: phage ELISA, coated D2H domain; remark: listed apart in the source
Description: as §1
(§2) Binding to fixed Caco-2 cells, D2H and BSA was examined.

[4] = biological target: T1, human D2H transporter receptor domain, …; experiment: phage ELISA, OD on D2H over OD on BSA; remark: listed apart in the source
Description: as §1, §2

[5] = biological target: T2, human intestinal peptide-associated transporter HPT1 receptor domain, amino acid residues 29-273, His-tag … (human, UniProt Q12864 29-273); experiment: phage ELISA, OD on HPT1 over OD on BSA
T2 construct: Expressed as His-tag fusion, purified under denaturing conditions, coated on plates; not shown: poly-histidine tag (pET His-tag) at the NH2-terminal end
T2 sequence: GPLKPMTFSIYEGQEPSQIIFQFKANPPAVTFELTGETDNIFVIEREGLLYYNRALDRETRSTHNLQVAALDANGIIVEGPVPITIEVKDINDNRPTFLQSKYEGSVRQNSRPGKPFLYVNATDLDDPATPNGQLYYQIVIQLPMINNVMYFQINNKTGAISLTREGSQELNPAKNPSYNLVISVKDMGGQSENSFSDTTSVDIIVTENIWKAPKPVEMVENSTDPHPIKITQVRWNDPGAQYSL

[6] = biological target: T2, human intestinal peptide-associated …; experiment: phage ELISA, coated HPT1 domain
[7] = biological target: T3, human sucrase-isomaltase complex (hSI) receptor domain, amino acid residues 272-667, His-tag fusion protein (human, UniProt P14410 272-667); experiment: phage ELISA, coated hSI domain
T3 construct: Expressed as His-tag fusion, purified under denaturing conditions (urea or guanidine HCl), coated on plates; also called hS1 receptor domain; not shown: poly-histidine tag (pET His-tag) at the NH2-terminal end
T3 sequence (P14410 272-667, one chain of several): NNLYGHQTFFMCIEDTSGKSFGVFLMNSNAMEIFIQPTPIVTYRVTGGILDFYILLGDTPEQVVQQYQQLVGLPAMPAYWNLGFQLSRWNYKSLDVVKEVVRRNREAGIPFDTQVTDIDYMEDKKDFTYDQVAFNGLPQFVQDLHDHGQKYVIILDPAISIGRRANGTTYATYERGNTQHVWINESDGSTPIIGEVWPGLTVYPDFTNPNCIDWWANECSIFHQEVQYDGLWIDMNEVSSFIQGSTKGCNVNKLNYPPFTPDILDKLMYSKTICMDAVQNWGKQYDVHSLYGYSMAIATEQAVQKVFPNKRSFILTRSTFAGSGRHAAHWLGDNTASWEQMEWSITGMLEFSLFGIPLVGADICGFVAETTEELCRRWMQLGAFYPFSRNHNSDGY

[8] = biological target: T3, human sucrase-isomaltase complex (hSI) …; experiment: phage ELISA, OD on hSI over OD on BSA
[9] = biological target: T2, human intestinal peptide-associated …; experiment: phage ELISA, OD on HPT1 over OD on BSA; remark: listed apart in the source
Description: as §1

B1: phage DAX15 (peptide)
peptide: SESGRCRSVSRWMTTWQTQKGGCGSNVSRGSPLDPSHQTGHATT
notes: pIII and flanks not included
[1]
  D2H/BSA: 4 ratio
[2]
  OD: 0.391 OD 650 nm

B2: phage DAB3 (peptide)
peptide: RWCGAELCNSVTKKFRPGWRDHANPSTHHRTPPPSQSSP
notes: pIII and flanks not included
[1]
  D2H/BSA: 6 ratio
[2]
  OD: 0.406 OD 650 nm

B3: phage DCX45 (peptide)
peptide: SVGNDKTSRPVSFYGRVSDLWNASLMPKRTPSSKRHDDG
notes: pIII and flanks not included
[3]
  OD: 0.336 OD 650 nm
[4]
  D2H/BSA: 4 ratio

B4: phage HAX42 (peptide)
peptide: SDHALGTNLRSDNAKEPGDYNCCGNGNSTGRKVFNRRRPSAIPT
notes: pIII and flanks not included
[5]
  HPT/BSA: 5 ratio
[6]
  OD: 0.32 OD 650 nm

B5: phage DAB30 (peptide)
peptide: SGFWEFSRGLWDGENRKSVRSGCGFRGSSAQGPCPVTPATIDKH
notes: pIII and flanks not included
[1]
  D2H/BSA: 6 ratio
[2]
  OD: 0.704 OD 650 nm

B6: phage SNiAX8 (peptide)
peptide: SPKLSSVGVMTKVTELPTEGPNAISIPISATLGPRNPLR
notes: pIII and flanks not included
[7]
  OD: 0.342 OD 650 nm
[8]
  hSI/BSA: 5 ratio

B7: phage DAX23 (peptide)
peptide: REWRFAGPPLDLWAGPSLPSFNASSHPRALRTYWSQRPR
notes: pIII and flanks not included
[1]
  D2H/BSA: 5 ratio
[2]
  OD: 0.698 OD 650 nm

B8: phage DAB7 (peptide)
peptide: RWCGADDPCGASRWRGGNSLFGCGLRCSAAQSTPSGRIHSTSTS
notes: pIII and flanks not included
[1]
  D2H/BSA: 8 ratio
[2]
  OD: 0.702 OD 650 nm

B9: phage SNi45 (peptide)
peptide: SGGEVSSWGRVNDLCARVSWTGCGTARSARTDNKGFLPKHSSLR
notes: pIII and flanks not included
[7]
  OD: 0.518 OD 650 nm
[8]
  hSI/BSA: 9 ratio

B10: phage SNiAX6 (peptide)
peptide: RTTTAKGCLLGSFGVLSGCSFTPTSPPPHLGYPPHSVN
notes: pIII and flanks not included
[7]
  OD: 0.369 OD 650 nm
[8]
  hSI/BSA: 7 ratio

B11: phage DAB18 (peptide)
peptide: RSSANNCEWKSDWMRRACIARYANSSGPARAVDTKAAP
notes: pIII and flanks not included
[1]
  D2H/BSA: 5 ratio
[2]
  OD: 0.467 OD 650 nm

B12: phage DCX8 (peptide)
peptide: RYKHDIGCDAGVDKKSSSVRGGCGAHSSPPRAGRGPRGTMVSRL
notes: pIII and flanks not included
[3]
  OD: 0.163 OD 650 nm
[4]
  D2H/BSA: 3 ratio

B13: phage SNiAX2 (peptide)
peptide: SDSDGDHYGLRGGVRCSLRDRGCGLALSTVHAGPPSFYPKLSSP
notes: pIII and flanks not included
[7]
  OD: 0.383 OD 650 nm
[8]
  hSI/BSA: 6 ratio

B14: phage DCX42 (peptide)
peptide: RYSGLSPRDNGPACSQEATLEGCGAQRLMSTRRKGRNSRPGWTL
notes: pIII and flanks not included
[3]
  OD: 0.158 OD 650 nm
[4]
  D2H/BSA: 2 ratio

B15: phage HAX9 (peptide)
peptide: SREEANWDGYKREMSHRSRFWDATHLSRPRRPANSGDPN
notes: pIII and flanks not included
[5]
  HPT/BSA: 5 ratio
[6]
  OD: 0.382 OD 650 nm

B16: phage DAX27 (peptide)
peptide: SHPWYRHWNHGDFSGSGQSRHTPPESPHPGRPNATI
notes: pIII and flanks not included
[1]
  D2H/BSA: 4 ratio
[2]
  OD: 1.58 OD 650 nm

B17: phage DAX24 (peptide)
peptide: RMEDIKNSGWRDSCRWGDLRPGCGSRQWYPSNMRSSRDYPAGGH
notes: pIII and flanks not included
[1]
  D2H/BSA: 5 ratio
[2]
  OD: 0.591 OD 650 nm

B18: phage DAB10 (peptide)
peptide: SKSGEGGDSSRGETGWARVRSHAMTAGRFRWYNQLPSDR
notes: pIII and flanks not included
[1]
  D2H/BSA: 4 ratio
[2]
  OD: 0.644 OD 650 nm

B19: phage DAB24 (peptide)
peptide: SKWSWSSRWGSPQDKVEKTRAGCGGSPSSTNCHPYTFAPPPQAG
notes: pIII and flanks not included
[1]
  D2H/BSA: 4 ratio
[2]
  OD: 1.8 OD 650 nm

B20: phage DCX11 (peptide)
peptide: SQGSKQCMQYRTGRLTVGSEYGCGMNPARHATPAYPARLLPRYR
notes: pIII and flanks not included
[3]
  OD: 0.222 OD 650 nm
[4]
  D2H/BSA: 3 ratio

B21: phage S22 (peptide)
peptide: SSSSDWGGVPGKVVRERFKGRGCGISITSVLTGKPNPCPEPKAA
notes: pIII and flanks not included
[7]
  OD: 0.399 OD 650 nm
[8]
  hSI/BSA: 7 ratio

B22: phage HAX40 (peptide)
peptide: REFAERRLWGCDDLSWRLDAEGCGPTPSNRAVKHRKPRPRSPAL
notes: pIII and flanks not included; also called H44
[5]
  HPT/BSA: 15 ratio
[6]
  OD: 0.991 OD 650 nm

B23: phage DCX33 (peptide)
peptide: RWNWTVLPATGGHYWTRSTDYHAINNHRPSIPHQHPTPI
notes: pIII and flanks not included
[3]
  OD: 0.616 OD 650 nm
[4]
  D2H/BSA: 6 ratio

B24: phage HCA3 (peptide)
peptide: RHISEYSFANSHLMGGESKRKGCGINGSFSPTCPRSPTPAFRRT
notes: pIII and flanks not included
[9]
  HPT1/BSA: 1 ratio

B25: phage DCX26 (peptide)
peptide: SGRTTSEISGLWGWGDDRSGYGWGNTLRPNYIPYRQATNRHRYT
notes: pIII and flanks not included
[3]
  OD: 0.956 OD 650 nm
[4]
  D2H/BSA: 4 ratio
